Our source for the Kd values is PMC9367177.

The assay deals with SARS-CoV-2 RBD (Wuhan-1), monomeric, His-Avitag (SARS-CoV-2, Wuhan-1) (UniProt P0DTC2). Put plainly: SPR.

CC12.1 IgG (antibody) gave a Kd of 6 nM.
